Data: patent US20110008492

B1: camel chymosin (Camelus dromedarius chymosin, recombinantly produced) (protein)
chain: GKVAREPLTSYLDSQYFGKIYIGTPPQEFTVVFDTGSSDLWVPSIYCKSNVCKNHHRFDPRKSSTFRNLGKPLSIHYGTGSMEGFLGYDTVTVSNIVDPNQTVGLSTEQPGEVFTYSEFDGILGLAYPSLASEYSVPVFDNMMDRHLVARDLFSVYMDRNGQGSMLTLGAIDPSYYTGSLHWVPVTLQQYWQFTVDSVTINGVAVACVGGCQAILDTGTSVLFGPSSDILKIQMAIGATENRYGEFDVNCGNLRSMPTVVFEINGRDYPLSPSAYTSKDQGFCTSGFQGDNNSELWILGDVFIREYYSVFDRANNRVGLAKAI
B2: bovine (calf) chymosin B, recombinant (protein)
chain: GEVASVPLTNYLDSQYFGKIYLGTPPQEFTVLFDTGSSDFWVPSIYCKSNACKNHQRFDPRKSSTFQNLGKPLSIHYGTGSMQGILGYDTVTVSNIVDIQQTVGLSTQEPGDVFTYAEFDGILGMAYPSLASEYSIPVFDNMMNRHLVAQDLFSVYMDRNGQESMLTLGAIDPSYYTGSLHWVPVTVQQYWQFTVDSVTISGVVVACEGGCQAILDTGTSKLVGPSSDILNIQQAIGATQNQYGEFDIDCDNLSYMPTVVFEINGKMYPLTPSAYTSQDQGFCTSGFQSENHSQKWILGDVFIREYYSVFDRANNLVGLAKAI

Target: kappa-casein of bovine (cow's) milk, P02668
Sequence (P02668 22-190): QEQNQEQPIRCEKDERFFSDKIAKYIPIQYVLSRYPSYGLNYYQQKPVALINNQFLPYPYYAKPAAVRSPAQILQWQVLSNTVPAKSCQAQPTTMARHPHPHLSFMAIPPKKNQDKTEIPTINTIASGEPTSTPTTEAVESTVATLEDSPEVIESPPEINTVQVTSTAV

Row | Protein | Specific activity (IMCU/mg) | Time to clotting
1 | B1 | 462 IMCU/mg | 12 to 13 min
2 | B2 | 223 IMCU/mg | 12 to 13 min
